Laboratory results: US20210369842A1 (Genmab, published 2021)
Where a chain is given by its changes, count along the chain named. Names and notes keep the numbering of the source.

B1: b12 (antibody, V domains shown)
VH: QVQLVQSGAEVKKPGASVKVSCQASGYRFSNFVIHWVRQAPGQRFEWMGWINPYNGNKEFSAKFQDRVTFTADTSANTAYMELRSLRSADTAVYYCARVGPYSWDDSPQDNYYMDVWGKGTTVIVSS
VL: EIVLTQSPGTLSLSPGERATFSCRSSHSIRSRRVAWYQHKPGQAPRLVIHGVSNRASGISDRFSGSGSGTDFTLTITRVEPEDFALYYCQVYGASSYTFGQGTKLERK
notes: also called monospecific, bivalent b12 antibody; gp120 specific antibody
B2: PD-L1-547-FEALxCD137-009-HC7LC2-FEAR (bispecific antibody, human IgG1, kappa, lambda)
heavy 1: EVQLLEPGGGLVQPGGSLRLSCEASGSTFSTYAMSWVRQAPGKGLEWVSGFSGSGGFTFYADSVRGRFTISRDSSKNTLFLQMSSLRAEDTAVYYCAIPARGYNYGSFQHWGQGTLVTVSSASTKGPSVFPLAPSSKSTSGGTAALGCLVKDYFPEPVTVSWNSGALTSGVHTFPAVLQSSGLYSLSSVVTVPSSSLGTQTYICNVNHKPSNTKVDKRVEPKSCDKTHTCPPCPAPEFEGGPSVFLFPPKPKDTLMISRTPEVTCVVVAVSHEDPEVKFNWYVDGVEVHNAKTKPREEQYNSTYRVVSVLTVLHQDWLNGKEYKCKVSNKALPAPIEKTISKAKGQPREPQVYTLPPSREEMTKNQVSLTCLVKGFYPSDIAVEWESNGQPENNYKTTPPVLDSDGSFLLYSKLTVDKSRWQQGNVFSCSVMHEALHNHYTQKSLSLSPGK
light 1: SYVLTQPPSVSVAPGQTARITCGGNNIGSKSVHWYQQKPGQAPVLVVYDDNDRPSGLPERFSGSNSGNTATLTISRVEAGDEADYYCQVWDSSSDHVVFGGGTKLTVLGQPKAAPSVTLFPPSSEELQANKATLVCLISDFYPGAVTVAWKADSSPVKAGVETTTPSKQSNNKYAASSYLSLTPEQWKSHRSYSCQVTHEGSTVEKTVAPTECS
heavy 2: EVQLVESGGGLVQPGRSLRLSCTASGFSLNDYWMSWVRQAPGKGLEWVGYIDVGGSLYYAASVKGRFTISRDDSKSIAYLQMNSLKTEDTAVYYCARGGLTYGFDLWGQGTLVTVSSASTKGPSVFPLAPSSKSTSGGTAALGCLVKDYFPEPVTVSWNSGALTSGVHTFPAVLQSSGLYSLSSVVTVPSSSLGTQTYICNVNHKPSNTKVDKRVEPKSCDKTHTCPPCPAPEFEGGPSVFLFPPKPKDTLMISRTPEVTCVVVAVSHEDPEVKFNWYVDGVEVHNAKTKPREEQYNSTYRVVSVLTVLHQDWLNGKEYKCKVSNKALPAPIEKTISKAKGQPREPQVYTLPPSREEMTKNQVSLTCLVKGFYPSDIAVEWESNGQPENNYKTTPPVLDSDGSFFLYSRLTVDKSRWQQGNVFSCSVMHEALHNHYTQKSLSLSPGK
light 2: DIVMTQSPSSLSASVGDRVTITCQASEDISSYLAWYQQKPGKAPKRLIYGASDLASGVPSRFSASGSGTDYTFTISSLQPEDIATYYCHYYATISGLGVAFGGGTKVEIKRTVAAPSVFIFPPSDEQLKSGTASVVCLLNNFYPREAKVQWKVDNALQSGNSQESVTEQDSKDSTYSLSSTLTLSKADYEKHKVYACEVTHQGLSSPVTKSFNRGEC
B3: b12-FEALxPD-L1-547-FEAR (bispecific antibody)
heavy 1: QVQLVQSGAEVKKPGASVKVSCQASGYRFSNFVIHWVRQAPGQRFEWMGWINPYNGNKEFSAKFQDRVTFTADTSANTAYMELRSLRSADTAVYYCARVGPYSWDDSPQDNYYMDVWGKGTTVIVSSASTKGPSVFPLAPSSKSTSGGTAALGCLVKDYFPEPVTVSWNSGALTSGVHTFPAVLQSSGLYSLSSVVTVPSSSLGTQTYICNVNHKPSNTKVDKRVEPKSCDKTHTCPPCPAPEFEGGPSVFLFPPKPKDTLMISRTPEVTCVVVAVSHEDPEVKFNWYVDGVEVHNAKTKPREEQYNSTYRVVSVLTVLHQDWLNGKEYKCKVSNKALPAPIEKTISKAKGQPREPQVYTLPPSREEMTKNQVSLTCLVKGFYPSDIAVEWESNGQPENNYKTTPPVLDSDGSFLLYSKLTVDKSRWQQGNVFSCSVMHEALHNHYTQKSLSLSPGK
light 1: EIVLTQSPGTLSLSPGERATFSCRSSHSIRSRRVAWYQHKPGQAPRLVIHGVSNRASGISDRFSGSGSGTDFTLTITRVEPEDFALYYCQVYGASSYTFGQGTKLERKRTVAAPSVFIFPPSDEQLKSGTASVVCLLNNFYPREAKVQWKVDNALQSGNSQESVTEQDSKDSTYSLSSTLTLSKADYEKHKVYACEVTHQGLSSPVTKSFNRGEC
heavy 2: B2 heavy 1 with L409F, K413R
light 2: B2 light 1
notes: also called monovalent PD-L1 antibody; monovalent PD-L1-control antibody
B4: PD-L1-547-FEAR (antibody, human IgG1, lambda, V domains shown)
VH: EVQLLEPGGGLVQPGGSLRLSCEASGSTFSTYAMSWVRQAPGKGLEWVSGFSGSGGFTFYADSVRGRFTISRDSSKNTLFLQMSSLRAEDTAVYYCAIPARGYNYGSFQHWGQGTLVTVSS
VL: SYVLTQPPSVSVAPGQTARITCGGNNIGSKSVHWYQQKPGQAPVLVVYDDNDRPSGLPERFSGSNSGNTATLTISRVEAGDEADYYCQVWDSSSDHVVFGGGTKLTVLG
notes: Human IgG1 lambda with L234F, L235E, D265A and K409R (FEAR)

Columns and labels:
Human PD-L1 [1] = target: T1, Human PD-L1 (human, UniProt Q9NZQ7 19-290); assay: flow cytometry on MDA-MB-231 cells, PE-conjugated goat anti-human IgG F(ab')2 as secondary
T1 construct: Amino acids 1-18 are stated as the predicted signal peptide; also called CD274; B7H1
Experimental: (§1) Cells (3-5×10⁴ cells/well) were incubated in polystyrene 96-well round-bottom plates (Greiner bio-one, cat. no. 650101) with serial dilutions of antibodies (range 0.0001 to 10 μg/mL in 5-fold dilution steps) in 50 μL PBS/0.1% BSA/0.02% azide (FACS buffer) at 4° C. for 30 min. After washing twice in FACS buffer, cells were incubated with secondary antibody at 4° C. for 30 min. As a secondary antibody, R-Phycoerythrin (PE)-conjugated goat-anti-human IgG F(ab′)₂ (Cat. no. 109-116-098, Jackson ImmunoResearch Laboratories, Inc., West Grove, Pa.) diluted 1:500 in 50 μL FACS buffer, was used for all experiments. Next, cells were washed twice in FACS buffer, re-suspended in 20 μL FACS buffer and analyzed on an iQue screener (Intellicyt Corporation, USA). Binding curves were analyzed using non-linear regression (sigmoidal dose-response with variable slope) using GraphPad Prism V75.04 software (GraphPad Software, San Diego, Calif., USA).

Human CD137 = Human CD137 (human, UniProt Q07011 24-255); assay: cell-based or functional assay
Human PD-L1 [2] = target: T1, Human PD-L1; assay: flow cytometry on SK-MES-1 cells, PE-conjugated goat anti-human IgG F(ab')2 as secondary
Experimental: as §1

Human PD-L1 [3] = target: T1, Human PD-L1; assay: cell-based or functional assay
Human PD-L1 [4] = target: T1, Human PD-L1; assay: flow cytometry on PC-3 cells, PE-conjugated goat anti-human IgG F(ab')2 as secondary
Experimental: as §1

T1 sequence (Q9NZQ7 19-290): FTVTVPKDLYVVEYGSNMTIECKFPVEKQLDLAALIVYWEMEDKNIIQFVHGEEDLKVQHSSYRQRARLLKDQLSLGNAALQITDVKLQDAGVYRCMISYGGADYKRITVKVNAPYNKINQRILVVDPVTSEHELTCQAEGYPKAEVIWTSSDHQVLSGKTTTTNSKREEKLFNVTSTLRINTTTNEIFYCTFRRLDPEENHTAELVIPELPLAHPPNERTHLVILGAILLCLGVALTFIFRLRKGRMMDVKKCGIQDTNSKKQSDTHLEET
Chain of Human CD137 (Q07011 24-255): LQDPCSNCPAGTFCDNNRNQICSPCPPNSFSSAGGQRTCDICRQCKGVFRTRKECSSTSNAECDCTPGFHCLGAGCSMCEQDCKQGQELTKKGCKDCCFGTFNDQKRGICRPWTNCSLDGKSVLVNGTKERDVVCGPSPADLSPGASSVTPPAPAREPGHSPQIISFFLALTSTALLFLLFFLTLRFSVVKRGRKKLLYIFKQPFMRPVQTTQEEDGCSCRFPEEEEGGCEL

Binder	binding result (Human PD-L1 [1])	EC50 value, CD8+ T-cell expansion (donor 1, 0.03 µg/ml anti-CD3) (Human CD137) [µg/mL]	EC50 value, CD8+ T-cell expansion (donor 2, 0.09 µg/ml anti-CD3) (Human CD137) [µg/mL]	EC50 (read off the curve) (Human PD-L1 [2]) [µg/mL]	EC50 (read off the curve); fold induction in the PD-1/PD-L1 inhibition bioassay, blocked partner human PD-1 (Human PD-L1 [3]) [µg/mL]	EC50 (read off the curve) (Human PD-L1 [1]) [µg/mL]	EC50 (read off the curve) (Human PD-L1 [4]) [µg/mL]
B1	no binding (tested: 10 µg/mL)	–	–	–	–	–	–
B2	–	0.0122	0.00689	–	–	–	–
B3	–	–	–	~0.2	~0.1	~0.06	~0.05
B4	–	–	–	~0.1	–	~0.05	~0.04
